# Target: mAb Mac2-158
# Test: circular peptide array
row,Binder,rank of binding signal [rank]
1,NESALWDCKHDGW (modifications not checked),13
2,EWGTVCNNGWSME (modifications not checked),4
3,CSGRVEVKVQEEW (modifications not checked),7
4,SCRGNESALW (modifications not checked),3
5,EEWGTVCNNGWSM (modifications not checked),14
6,WGTVCNNGWSMEA (modifications not checked),12
7,CRGNESALWD (modifications not checked),11
8,VQEEWGTVCNNGW (modifications not checked),18
9,VSCRGNESALWDC (modifications not checked),5
10,ALWDCKHDGW (modifications not checked),6
11,EWGTVCNNGW (modifications not checked),19
12,QEEWGTVCNNGWS (modifications not checked),9
13,RGNESALWDC (modifications not checked),2
14,WGTVCNNGWS (modifications not checked),20
15,ESALWDC (modifications not checked),1
16,ESALWDCKHDGWG (modifications not checked),17
17,DHVSCRGNESALW (modifications not checked),8

# From US20250213707A1, “COMPOUND FOR INCREASING EFFICACY OF ONCOLYTIC VIRUSES” (ABLEVIA BIOTECH GMBH, priority 2022, published 2025)
